# Test results reported in patent US20110288276A1 (AstraZeneca / MedImmune, published 2011).
# B1: Fc/YTE (human IgG1 Fc fragment containing the M252Y/S254T/T256E triple substitution) (other)
# chain: GGPSVFLFPPKPKDTLYITREPEVTCVVVDVSHEDPEVKFNWYVDGVEVHNAKTKPREEQYNSTYRVVSVLTVLHQDWLNGKEYKCKVSNKALPAPIEKTISKAKGQPREPQVYTLPPSREEMTKNQVSLTCLVKGFYPSDIAVEWESNGQPENNYKTTPPVLDSDGSFFLYSKLTVDKSRWQQGNVFSCSVMHEALHNHYTQKSLSLS
# modifications: one branched N-linked carbohydrate chain attached to N297 (EU numbering)
# notes: Fc portion (heavy chain residues 223-447, EU) of MEDI-524 with M252Y/S254T/T256E, expressed in HEK 293 cells; It consists of two chemically identical polypeptides with at least one interchain disulfide at C226 and/or C229; In the assay it was amine-coupled to a CM5 chip; also called human IgG Fc variant; YTE-modified human Fc
# Tests used:
# [1] = target: T1, Human FcRn (soluble human neonatal Fc receptor) (human, UniProt P55899 24-290; P61769 21-119, limits assumed); assay: SPR (BIAcore 3000), Fc amine-coupled to CM5 chip, soluble human FcRn 1.46 nM to 3 uM, steady-state binding isotherm, PBS pH 6.0 with 0.05% Tween 20, 25 C; error is SD of 2 experiments
# T1 construct: also called soluble human FcRn
# From the text: (§1) The interaction of soluble human FcRn with immobilized unmutated human Fc and Fc/YTE was monitored by surface plasmon resonance detection using a BIAcore 3000 instrument (GE Healthcare, Piscataway, N.J.). Unmutated human Fc and Fc/YTE were first coupled to the dextran matrix of a CM5 sensor chip (GE Healthcare) using an Amine Coupling Kit at a surface density of between 4139 and 4291 RU according to the manufacturer's instructions. Human FcRn was used in equilibrium binding experiments at concentrations ranging from 1.46 nM to 3 uM at a flow rate of 5 uL/min. Dilutions and binding experiments were carried out at 25° C. in phosphate buffered saline (PBS), pH 6.0 containing 0.05% Tween 20. Steady-state binding data were collected for 50 min. Both Fc surfaces were regenerated with six 1-min injection of PBS, pH 7.4 containing 0.05% Tween 20. Human FcRn was also allowed to flow over an uncoated cell. The sensorgrams from these blank runs were then subtracted from those obtained with Fc-coupled chips. Dissociation constants (Kds) were determined by fitting the corresponding binding isotherms.
# ^a Affinity measurements were carried out by BIAcore as described in Materials and Methods. Errors were estimated as the standard deviations of 2 independent experiments for each interacting pair.
# [2] = target: T1, Human FcRn (soluble human neonatal Fc …); assay: SPR (BIAcore 3000), ratio of steady-state Kd values, pH 6.0
# From the text: as §1
# T1 sequence (P55899 24-290 limits assumed, chain 1 of 2): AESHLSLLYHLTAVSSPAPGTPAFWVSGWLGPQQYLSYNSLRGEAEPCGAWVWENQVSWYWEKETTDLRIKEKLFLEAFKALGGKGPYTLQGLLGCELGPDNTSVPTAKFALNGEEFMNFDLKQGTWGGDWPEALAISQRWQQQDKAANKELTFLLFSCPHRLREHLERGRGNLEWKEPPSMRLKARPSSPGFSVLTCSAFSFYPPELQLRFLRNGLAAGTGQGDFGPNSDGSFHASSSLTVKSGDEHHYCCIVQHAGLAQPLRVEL
# T1 sequence (P61769 21-119 limits assumed, chain 2 of 2): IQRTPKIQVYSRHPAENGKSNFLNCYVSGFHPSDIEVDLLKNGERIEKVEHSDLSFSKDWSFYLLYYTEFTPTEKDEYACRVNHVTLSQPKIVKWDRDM
binder,measurement,setting,value
B1,Kd,[1],72 nM
same,fold higher binding affinity than the unmutated human Fc,[2],~8 fold
